Experimental data as given in patent publication US20120010178A1, “METHODS AND COMPOUNDS FOR TREATMENT OF NEURODEGENERATIVE DISORDERS” (PRESIDENT AND FELLOWS OF HARVARD COLLEGE, priority 2008, published 2012).

System: SMN
Assay: SMN levels in mouse (ES-cell derived) motor neurons
Type: cell-based
Conditions: mouse motor neurons
Method: Mouse HB9-GFP derived SMN deficient motor neuron cells were incubated for 2 days with compounds from libraries and collections.
Motor neurons were produced from mouse ES-cells expressing cherry fluorescent protein (CFP) under the control of the motor neuron-selective Hb9 promoter, as previously described (Wichterle et al., 2002).
GFP expressing motor neurons were derived from mouse ES cells as described below. After growing for approximately 1 week, motor neurons were treated with allsterpaullone. Two days after treatment with allsterpaullone, cells were fixed and stained with SMN antibody or GFP antibody.
mES cells were differentiated into motor neurons according to methods adapted from Wichterle et. al., Cell (2002), 110:385-397. Briefly, mES cells were grown to 70-80% confluence in 10-cm plates (Falcon) in ES cell medium. To form embryoid bodies, cells were washed once with PBS to eliminate mES medium and then incubated with 1 ml of 0.25% trypsin (GIBCO) for 5-10 min at 21-25° C. (RT). Cells were then resuspended in 10 ml of DM1 medium (DMEM-F12, GIBCO), 10% knockout serum (GIBCO), penicillin, streptomycin, glutamine (GIBCO) and 2-mercaptoethanol (GIBCO), counted and plated at a concentration of 200,000 cells per ml in Petri dishes (Falcon). […] The cells were counted and plated on poly-ornithine coated 96-well plates (VWR).

B1: BMP4: bone morphogenetic protein 4, BMP/TGFβ ligand (protein, UniProt P12644 293-408, looked up)
Bone morphogenetic protein 4: SPKHHSQRARKKNKNCRRHSLYVDFSDVGWNDWIVAPPGYQAFYCHGDCPFPLADHLNSTNHAIVQTLVNSVNSSIPKACCVPTELSAISMLYLDEYDKVVLKNYQEMVVEGCGCR
SMN levels in motor neurons (in words): increase SMN levels
